According to paper PMC6826200, “An oligomeric state‐dependent switch in the ER enzyme FICD regulates AMPylation and deAMPylation of BiP” (The EMBO Journal, 2019):

B2: FICD^S288C-H363A-C421S-TMR (dimerisation-sensitive fluorescent probe) (domain or fragment, human, UniProt Q9BVA6 104-445, looked up)
chain: LEARAALNQALEMKRQGKREKAQKLFMHALKMDPDFVDALTEFGIFSEEDKDIIQADYLYTRALTISPYHEKALVNRDRTLPLVEEIDQRYFSIIDSKVKKVMSIPKGNSALRRVMEETYYHHIYHTVAIEGNTLTLSEIRHILETRYAVPGKSLEEQNEVIGMHAAMKYINTTLVSRIGSVTICDVLEIHRRVLGYVDPVEAGRFRTTQVLVGHHIPPHPQDVEKQMQEFVQWLNSEEAMNLHPVEFAALAHYKLVYIAPFIDGNGRTSRLLMNLILMQAGYPPITIRKEQRSDYYHVLEAANEGDVRPFIRFIAKSTETTLDTLLFATTEYSVALPEAQP
modifications: tetramethylrhodamine (TMR-5-maleimide) on Cys288 (labelling efficiency 41%); unlabelled cysteines quenched with NEM
notes: FICD (HYPE), human, residues 104-445; also called FICD-TMR; UK 2473

What was measured:
[1] = target: B2; assay: other fluorescence titration; 2.5 nM FICD^S288C-H363A-C421S-TMR with unlabelled FICD or nucleotide as titrant in HKTx, 45 min at 10°C; de-quenching of TMR fluorescence (excitation 535 nm, emission 585 nm); conditions: both partners purified
[2] = target: T1, biotinylated-AviTag-haBiP^T229A-V461F (Chinese hamster, UniProt G3I8R9 19-654, T229A | V461F, biotin on the AviTag); assay: BLI; biotinylated BiP^T229A-V461F immobilised on streptavidin biosensors and saturated with 2 mM ATP; FICD His363Ala variants at 250 nM, association or dissociation without nucleotide or with ATP 8 mM or ADP 2 mM; HKM plus 0.05% Triton X-100, 30°C; conditions: both partners purified
T1 construct: BiP, Chinese hamster; Immobilised nucleotide-free and, where indicated, saturated with 2 mM ATP on the sensor; also called BiP^T229A-V461F:Apo; BiP:ATP

[3] = target: T2, biotinylated-AviTag-FICD^H363A (human, UniProt Q9BVA6 104-445, H363A, biotin on the AviTag); assay: BLI; 3 nM biotinylated-AviTag-FICD^H363A incubated 10 min at 25°C with 300 nM FICD^H363A, hetero-labelled dimers loaded on streptavidin biosensors; dissociation into HKTx with or without 5 mM nucleotide; signal of sensors incubated with FICD^L258D-H363A subtracted; dimer to monomers; conditions: both partners purified
T2 construct: FICD (HYPE), human, residues 104-445 (the limits are those told for all purified FICD proteins); also called N-terminally biotinylated FICD^H363A; UK 2422; not shown: AviTag, N-terminal, kept
T2 sequence (looked up): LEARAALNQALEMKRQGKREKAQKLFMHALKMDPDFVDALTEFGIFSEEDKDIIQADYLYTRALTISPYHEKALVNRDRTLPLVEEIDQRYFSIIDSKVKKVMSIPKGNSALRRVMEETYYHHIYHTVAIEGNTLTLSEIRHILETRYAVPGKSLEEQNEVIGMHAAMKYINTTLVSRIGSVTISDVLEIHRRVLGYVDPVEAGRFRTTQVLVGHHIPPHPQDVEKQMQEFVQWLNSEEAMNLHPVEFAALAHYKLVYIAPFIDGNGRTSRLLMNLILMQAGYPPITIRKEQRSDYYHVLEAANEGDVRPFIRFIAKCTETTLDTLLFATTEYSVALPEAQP

[4] = target: the molecule itself; assay: other fluorescence titration; 2.5 nM FICD^S288C-H363A-C421S-TMR with unlabelled FICD or nucleotide as titrant in HKTx, 45 min at 10°C; de-quenching of TMR fluorescence (excitation 535 nm, emission 585 nm)
[5] = target: the molecule itself; assay: crystal structure; sitting drop vapour diffusion, protein at 9 mg/ml in 10 mM Tris-HCl pH 8.0, 150 mM NaCl, 1 mM TCEP, with 10 mM MgATP or MgAMPPNP where applicable
[6] = target: the molecule itself; assay: SEC; analytical SEC-3 HPLC column in HKMC (50 mM HEPES-KOH pH 7.4, 150 mM KCl, 10 mM MgCl2, 1 mM CaCl2), 25°C; proteins at 20 μM, or at 0.2-50 μM after 16 h at 25°C; approximate Kd from elution peak time against concentration; dimer to monomers

T1 sequence (G3I8R9 19-654 T229A/V461F): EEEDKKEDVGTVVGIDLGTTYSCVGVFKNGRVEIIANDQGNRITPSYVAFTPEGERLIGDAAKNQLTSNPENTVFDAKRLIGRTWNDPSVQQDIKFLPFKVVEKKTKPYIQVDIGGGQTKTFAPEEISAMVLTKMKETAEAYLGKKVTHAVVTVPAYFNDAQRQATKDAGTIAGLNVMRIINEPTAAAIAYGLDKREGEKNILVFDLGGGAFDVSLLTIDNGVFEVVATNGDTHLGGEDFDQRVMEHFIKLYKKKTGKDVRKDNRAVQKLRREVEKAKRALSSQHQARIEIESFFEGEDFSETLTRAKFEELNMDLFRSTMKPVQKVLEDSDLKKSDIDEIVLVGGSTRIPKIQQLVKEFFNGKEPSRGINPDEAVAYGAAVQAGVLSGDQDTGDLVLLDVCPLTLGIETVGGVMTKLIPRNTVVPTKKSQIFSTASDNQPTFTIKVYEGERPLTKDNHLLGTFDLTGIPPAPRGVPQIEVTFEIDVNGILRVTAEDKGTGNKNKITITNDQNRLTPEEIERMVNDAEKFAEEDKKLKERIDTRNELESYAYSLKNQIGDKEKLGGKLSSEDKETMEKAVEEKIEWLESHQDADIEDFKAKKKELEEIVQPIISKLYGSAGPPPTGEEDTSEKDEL

B1: catalytically inactive, dimeric FICD^H363A (residues 104-445) (domain or fragment, human, UniProt Q9BVA6 104-445, looked up)
chain: LEARAALNQALEMKRQGKREKAQKLFMHALKMDPDFVDALTEFGIFSEEDKDIIQADYLYTRALTISPYHEKALVNRDRTLPLVEEIDQRYFSIIDSKVKKVMSIPKGNSALRRVMEETYYHHIYHTVAIEGNTLTLSEIRHILETRYAVPGKSLEEQNEVIGMHAAMKYINTTLVSRIGSVTISDVLEIHRRVLGYVDPVEAGRFRTTQVLVGHHIPPHPQDVEKQMQEFVQWLNSEEAMNLHPVEFAALAHYKLVYIAPFIDGNGRTSRLLMNLILMQAGYPPITIRKEQRSDYYHVLEAANEGDVRPFIRFIAKCTETTLDTLLFATTEYSVALPEAQP
notes: FICD (HYPE), human, residues 104-445; Dimeric as analyte on BiP; in the rows with m14 and m15 one of its protomers pairs with one labelled protomer; also called dFICD^H363A; UK 1954; source: E. coli T7 Express lysY/Iq, purified (Ni-NTA, on-column Ulp1 cleavage, anion exchange, SEC)
Q: What does the source list for B1?
A: binding result [1]: binds; binding result [2]: binds; fold increase of the dimer dissociation rate with 5 mM ATP against no nucleotide [3]: 3 fold

Q: Does B2 bind [4]?
A: Result: binds

B3: catalytically inactive, monomeric FICD^L258D-H363A (residues 104-445) (domain or fragment, human, UniProt Q9BVA6 104-445, looked up)
chain: LEARAALNQALEMKRQGKREKAQKLFMHALKMDPDFVDALTEFGIFSEEDKDIIQADYLYTRALTISPYHEKALVNRDRTLPLVEEIDQRYFSIIDSKVKKVMSIPKGNSALRRVMEETYYHHIYHTVAIEGNTLTLSEIRHILETRYAVPGKSDEEQNEVIGMHAAMKYINTTLVSRIGSVTISDVLEIHRRVLGYVDPVEAGRFRTTQVLVGHHIPPHPQDVEKQMQEFVQWLNSEEAMNLHPVEFAALAHYKLVYIAPFIDGNGRTSRLLMNLILMQAGYPPITIRKEQRSDYYHVLEAANEGDVRPFIRFIAKCTETTLDTLLFATTEYSVALPEAQP
notes: FICD (HYPE), human, residues 104-445; also called mFICD^H363A; source: E. coli T7 Express lysY/Iq, purified (Ni-NTA, on-column Ulp1 cleavage, anion exchange, SEC)
Q: Does B3 bind [2]?
A: Result: binds

B4: wild-type FICD (amino acid residues 104-445) (domain or fragment, human, UniProt Q9BVA6 104-445, looked up)
chain: LEARAALNQALEMKRQGKREKAQKLFMHALKMDPDFVDALTEFGIFSEEDKDIIQADYLYTRALTISPYHEKALVNRDRTLPLVEEIDQRYFSIIDSKVKKVMSIPKGNSALRRVMEETYYHHIYHTVAIEGNTLTLSEIRHILETRYAVPGKSLEEQNEVIGMHAAMKYINTTLVSRIGSVTISDVLEIHRRVLGYVDPVEAGRFRTTQVLVGHHIPPHPQDVEKQMQEFVQWLNSEEAMNLHPVEFAALAHYKLVYIHPFIDGNGRTSRLLMNLILMQAGYPPITIRKEQRSDYYHVLEAANEGDVRPFIRFIAKCTETTLDTLLFATTEYSVALPEAQP
notes: FICD (HYPE), human, residues 104-445; Homodimer in solution; its rows measure this dimerisation, so copies is left empty; also called HYPE; dFICD; source: E. coli T7 Express lysY/Iq, purified (Ni-NTA, on-column Ulp1 cleavage, anion exchange, SEC)
Q: B4 was tested. Which “stoichiometry N” value [5] did it give?
A: The value was 2 molecules in the biological unit.

Q: And the “stoichiometry N” value [6]?
A: Its value is 2.

B5: FICD^K256S (residues 104-445) (domain or fragment, human, UniProt Q9BVA6 104-445, looked up)
chain: LEARAALNQALEMKRQGKREKAQKLFMHALKMDPDFVDALTEFGIFSEEDKDIIQADYLYTRALTISPYHEKALVNRDRTLPLVEEIDQRYFSIIDSKVKKVMSIPKGNSALRRVMEETYYHHIYHTVAIEGNTLTLSEIRHILETRYAVPGSSLEEQNEVIGMHAAMKYINTTLVSRIGSVTISDVLEIHRRVLGYVDPVEAGRFRTTQVLVGHHIPPHPQDVEKQMQEFVQWLNSEEAMNLHPVEFAALAHYKLVYIHPFIDGNGRTSRLLMNLILMQAGYPPITIRKEQRSDYYHVLEAANEGDVRPFIRFIAKCTETTLDTLLFATTEYSVALPEAQP
notes: FICD (HYPE), human, residues 104-445; also called Lys256Ser; dimer relay mutant; source: E. coli T7 Express lysY/Iq, purified (Ni-NTA, on-column Ulp1 cleavage, anion exchange, SEC)
Q: Which “stoichiometry N” value [5] does the source give for B5 here?
A: Its value is 2 molecules in the biological unit.

Q: And the Kd [6]?
A: Its Kd is under 0.4 µM.

B6: FICD^K256A (residues 104-445) (domain or fragment, human, UniProt Q9BVA6 104-445, looked up)
chain: LEARAALNQALEMKRQGKREKAQKLFMHALKMDPDFVDALTEFGIFSEEDKDIIQADYLYTRALTISPYHEKALVNRDRTLPLVEEIDQRYFSIIDSKVKKVMSIPKGNSALRRVMEETYYHHIYHTVAIEGNTLTLSEIRHILETRYAVPGASLEEQNEVIGMHAAMKYINTTLVSRIGSVTISDVLEIHRRVLGYVDPVEAGRFRTTQVLVGHHIPPHPQDVEKQMQEFVQWLNSEEAMNLHPVEFAALAHYKLVYIHPFIDGNGRTSRLLMNLILMQAGYPPITIRKEQRSDYYHVLEAANEGDVRPFIRFIAKCTETTLDTLLFATTEYSVALPEAQP
notes: FICD (HYPE), human, residues 104-445; also called dimeric dimer relay mutant FICD^K256A; source: E. coli T7 Express lysY/Iq, purified; gel-filtered into 10 mM Tris-HCl pH 8.0, 150 mM NaCl, 1 mM TCEP for crystallisation
Q: Which “stoichiometry N” value [5] does the source give for B6 here?
A: Its value is 2 molecules in the biological unit.

B7: FICD^G299S (residues 104-445) (domain or fragment, human, UniProt Q9BVA6 104-445, looked up)
chain: LEARAALNQALEMKRQGKREKAQKLFMHALKMDPDFVDALTEFGIFSEEDKDIIQADYLYTRALTISPYHEKALVNRDRTLPLVEEIDQRYFSIIDSKVKKVMSIPKGNSALRRVMEETYYHHIYHTVAIEGNTLTLSEIRHILETRYAVPGKSLEEQNEVIGMHAAMKYINTTLVSRIGSVTISDVLEIHRRVLSYVDPVEAGRFRTTQVLVGHHIPPHPQDVEKQMQEFVQWLNSEEAMNLHPVEFAALAHYKLVYIHPFIDGNGRTSRLLMNLILMQAGYPPITIRKEQRSDYYHVLEAANEGDVRPFIRFIAKCTETTLDTLLFATTEYSVALPEAQP
notes: FICD (HYPE), human, residues 104-445; also called Gly299Ser; source: E. coli T7 Express lysY/Iq, purified (Ni-NTA, on-column Ulp1 cleavage, anion exchange, SEC)
Q: How did the Kd [6] turn out when B7 was run?
A: The Kd was 9.5 µM.

B8: FICD^E242A (residues 104-445) (domain or fragment, human, UniProt Q9BVA6 104-445, looked up)
chain: LEARAALNQALEMKRQGKREKAQKLFMHALKMDPDFVDALTEFGIFSEEDKDIIQADYLYTRALTISPYHEKALVNRDRTLPLVEEIDQRYFSIIDSKVKKVMSIPKGNSALRRVMEETYYHHIYHTVAIEGNTLTLSAIRHILETRYAVPGKSLEEQNEVIGMHAAMKYINTTLVSRIGSVTISDVLEIHRRVLGYVDPVEAGRFRTTQVLVGHHIPPHPQDVEKQMQEFVQWLNSEEAMNLHPVEFAALAHYKLVYIHPFIDGNGRTSRLLMNLILMQAGYPPITIRKEQRSDYYHVLEAANEGDVRPFIRFIAKCTETTLDTLLFATTEYSVALPEAQP
notes: FICD (HYPE), human, residues 104-445; also called dimer relay mutant; source: E. coli T7 Express lysY/Iq, purified (Ni-NTA, on-column Ulp1 cleavage, anion exchange, SEC)
Q: How did the Kd [6] turn out when B8 was run?
A: Its Kd is under 0.4 µM.

B9: non-oxidised FICD^A252C-C421S (residues 104-445) (domain or fragment, human, UniProt Q9BVA6 104-445, looked up)
chain: LEARAALNQALEMKRQGKREKAQKLFMHALKMDPDFVDALTEFGIFSEEDKDIIQADYLYTRALTISPYHEKALVNRDRTLPLVEEIDQRYFSIIDSKVKKVMSIPKGNSALRRVMEETYYHHIYHTVAIEGNTLTLSEIRHILETRYCVPGKSLEEQNEVIGMHAAMKYINTTLVSRIGSVTISDVLEIHRRVLGYVDPVEAGRFRTTQVLVGHHIPPHPQDVEKQMQEFVQWLNSEEAMNLHPVEFAALAHYKLVYIHPFIDGNGRTSRLLMNLILMQAGYPPITIRKEQRSDYYHVLEAANEGDVRPFIRFIAKSTETTLDTLLFATTEYSVALPEAQP
notes: FICD (HYPE), human, residues 104-445; also called non-disulphide-bonded FICD^A252C-C421S; UK 2219; source: E. coli T7 Express lysY/Iq, purified; a separate preparation not subjected to oxidation with glutathione
Q: Does B9 bind [6]?
A: Result: binds

B10: cysteine-free FICD^C421S (residues 104-445) (domain or fragment, human, UniProt Q9BVA6 104-445, looked up)
chain: LEARAALNQALEMKRQGKREKAQKLFMHALKMDPDFVDALTEFGIFSEEDKDIIQADYLYTRALTISPYHEKALVNRDRTLPLVEEIDQRYFSIIDSKVKKVMSIPKGNSALRRVMEETYYHHIYHTVAIEGNTLTLSEIRHILETRYAVPGKSLEEQNEVIGMHAAMKYINTTLVSRIGSVTISDVLEIHRRVLGYVDPVEAGRFRTTQVLVGHHIPPHPQDVEKQMQEFVQWLNSEEAMNLHPVEFAALAHYKLVYIHPFIDGNGRTSRLLMNLILMQAGYPPITIRKEQRSDYYHVLEAANEGDVRPFIRFIAKSTETTLDTLLFATTEYSVALPEAQP
notes: FICD (HYPE), human, residues 104-445; also called UK 2161; source: E. coli T7 Express lysY/Iq, purified by the protocol of the disulphide-linked dimers
Q: Does B10 bind [6]?
A: Result: binds
